Laboratory results reported in patent publication US20170290886A1, “TREATMENT OF NEURODEVELOPMENTAL DISORDERS” (Academia Sinica, priority 2016, published 2017).

Biological target: T1, MeCP2 (Homo sapiens, UniProt P51608)
T1 construct: GST; purchased Prospec
Assay: In vitro SUMOylation assay with recombinant proteins
Type: biochemical
Details: E1, E2, PIAS1 and MeCP2 proteins added; FIG. 1a
Method: In vitro SUMOylation assay was performed by using the SUMO link kit according to the manufacturer's instructions (Active Motif, Carlsbad, Calif.). Recombinant GST-tagged MeCP2 protein (Prospec, East Brunswick, N.J.), His-tagged PIAS1 protein purified from His-bind resin (Novagen, Wis.), and GST-tagged SENP1 protein (Enzo, Ann Arbor, Mich.) were used for assays at 30° C. for 3 h and then boiled in Laemmli sample buffer at 95° C. for 10 min. The in vitro SUMOylation product was subject to 8% SDS-PAGE followed by transferring onto the NC membrane. The membrane was immunoblotted with anti-His and anti-GST antibodies.

T1 sequence (P51608 whole entry, species assumed): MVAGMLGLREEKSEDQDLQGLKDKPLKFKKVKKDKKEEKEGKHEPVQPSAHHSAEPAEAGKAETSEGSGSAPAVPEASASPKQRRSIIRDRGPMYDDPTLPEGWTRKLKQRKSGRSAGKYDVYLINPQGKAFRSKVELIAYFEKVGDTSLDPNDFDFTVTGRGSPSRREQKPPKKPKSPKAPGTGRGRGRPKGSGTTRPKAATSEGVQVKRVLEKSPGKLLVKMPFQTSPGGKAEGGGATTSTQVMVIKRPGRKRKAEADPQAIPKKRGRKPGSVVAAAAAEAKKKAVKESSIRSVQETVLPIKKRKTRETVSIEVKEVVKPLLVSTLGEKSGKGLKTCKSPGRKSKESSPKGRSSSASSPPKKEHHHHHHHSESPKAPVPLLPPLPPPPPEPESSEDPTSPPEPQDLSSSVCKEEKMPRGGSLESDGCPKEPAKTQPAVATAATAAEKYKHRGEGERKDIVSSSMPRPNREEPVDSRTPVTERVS

B1: SENP1: an enzyme that removes the sumo molecule from sumo-conjugated protein (protein, UniProt Q9P0U3 1-644, looked up)
Sentrin-specific protease 1: MDDIADRMRMDAGEVTLVNHNSVFKTHLLPQTGFPEDQLSLSDQQILSSRQGHLDRSFTCSTRSAAYNPSYYSDNPSSDSFLGSGDLRTFGQSANGQWRNSTPSSSSSLQKSRNSRSLYLETRKTSSGLSNSFAGKSNHHCHVSAYEKSFPIKPVPSPSWSGSCRRSLLSPKKTQRRHVSTAEETVQEEEREIYRQLLQMVTGKQFTIAKPTTHFPLHLSRCLSSSKNTLKDSLFKNGNSCASQIIGSDTSSSGSASILTNQEQLSHSVYSLSSYTPDVAFGSKDSGTLHHPHHHHSVPHQPDNLAASNTQSEGSDSVILLKVKDSQTPTPSSTFFQAELWIKELTSVYDSRARERLRQIEEQKALALQLQNQRLQEREHSVHDSVELHLRVPLEKEIPVTVVQETQKKGHKLTDSEDEFPEITEEMEKEIKNVFRNGNQDEVLSEAFRLTITRKDIQTLNHLNWLNDEIINFYMNMLMERSKEKGLPSVHAFNTFFFTKLKTAGYQAVKRWTKKVDVFSVDILLVPIHLGVHWCLAVVDFRKKNITYYDSMGGINNEACRILLQYLKQESIDKKRKEFDTNGWQLFSKKSQEIPQQMNGSDCGMFACKYADCITKDRPINFTQQHMPYFRKRMVWEILHRKLL
modifications: GST tag
notes: an enzyme that removes the sumo molecule from sumo-conjugated protein
MeCP2 SUMOylation: blocked
